The record followed here is doi:10.1101/2021.08.08.455546.

The target of this assay is Human GRLBD-F602S (520-778), glucocorticoid receptor ligand binding domain (human) (UniProt P04150).
Chain of UniProt P04150 (P04150 520-777 F602S): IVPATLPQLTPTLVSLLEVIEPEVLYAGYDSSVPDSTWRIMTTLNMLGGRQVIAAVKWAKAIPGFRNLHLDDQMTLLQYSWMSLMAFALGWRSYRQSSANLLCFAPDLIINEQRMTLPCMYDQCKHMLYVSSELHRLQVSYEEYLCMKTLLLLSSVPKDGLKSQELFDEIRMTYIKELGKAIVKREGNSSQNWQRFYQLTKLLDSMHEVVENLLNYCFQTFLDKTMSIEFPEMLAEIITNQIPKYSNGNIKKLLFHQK

Take “Human Hsp90β (from UniProt P08238 1-724) (natural protein)”: the relaxation energy of the GRLBD chain with hHsp90 in absence of ATP worked out at 42 KBT.
